The results in this text go back to US6410715 (QUESTCOR PHARMACEUTICALS, dated 2002).

The target of experiment [1] is eIF-4E of human HTK-143 cells (human) (UniProt P06730). Description: cell-based or functional assay.
Experiment [2] addresses 4E-BP1 prepared from untreated rat adipose tissue (rat) (UniProt Q62622). Kind of experiment: far-Western on blotted heat-stable adipose tissue proteins, pool 1, no insulin.
Experiment [3] has the same target. Description: far-Western on blotted heat-stable adipose tissue proteins, pool 2, no insulin.
For experiment [4] the target is unchanged. Kind of experiment: far-Western on blotted heat-stable adipose tissue proteins, pool 3, no insulin.
In experiment [5] the target is 4E-BP1 prepared from insulin-treated rat adipose tissue (rat) (UniProt Q62622). Description: far-Western, pool 1, insulin-treated against untreated tissue of the same pool.
4E-BP1 prepared from insulin-treated rat adipose tissue (rat), sequence (Q62622 2-117 limits assumed): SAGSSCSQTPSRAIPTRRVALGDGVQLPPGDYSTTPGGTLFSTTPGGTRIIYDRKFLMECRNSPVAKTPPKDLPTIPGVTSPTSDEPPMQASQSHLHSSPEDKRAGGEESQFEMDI
Experiment [6] has the same target. Description: far-Western, pool 2, insulin-treated against untreated tissue of the same pool.
The target is the same in experiment [7]. Kind of experiment: far-Western, pool 3, insulin-treated against untreated tissue of the same pool.
The target is the same in experiment [8]. Kind of experiment: far-Western on blotted heat-stable adipose tissue proteins, pool 1, insulin 80 nM.
Experiment [9] has the same target. Kind of experiment: far-Western on blotted heat-stable adipose tissue proteins, pool 2, insulin 80 nM.
The target is the same in experiment [10]. Description: far-Western on blotted heat-stable adipose tissue proteins, pool 3, insulin 80 nM.
Experiment [11] concerns the target eIF-4E of rabbit reticulocyte lysate (rabbit, UniProt P29338 2-217). Kind of experiment: cell-based or functional assay.

eIF-4E of human HTK-143 cells (human), sequence (P06730 2-217 limits assumed): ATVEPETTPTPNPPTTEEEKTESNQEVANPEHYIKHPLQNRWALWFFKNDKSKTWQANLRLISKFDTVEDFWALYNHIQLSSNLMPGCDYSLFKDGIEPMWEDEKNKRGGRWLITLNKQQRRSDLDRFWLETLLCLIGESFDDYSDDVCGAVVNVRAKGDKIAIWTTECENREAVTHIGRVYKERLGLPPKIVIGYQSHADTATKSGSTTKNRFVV
4E-BP1 prepared from untreated rat adipose tissue (rat), sequence (Q62622 2-117 limits assumed): as the sequence (Q62622 2-117 limits assumed) above
eIF-4E of rabbit reticulocyte lysate, sequence (P29338 2-217 limits assumed): as the sequence (P06730 2-217 limits assumed) above, with T15P, T16A, E173D counted along it

In experiment [1], “4E-BP2 (human, protein of 120 amino acids)” showed a CAT (%), cap-dependent expression from pGEMCAT/EMC/LUC in HTK-143 cells co-transfected with pRc/CMV/4E-BP2 (% of reporter plasmid alone) of 26; a CAT (%), cap-dependent expression from pGEMCAT/polio/LUC in HTK-143 cells co-transfected with pRc/CMV/4E-BP2 (% of reporter plasmid alone) of 24; an inhibition of CAT expression in transfected HTK-143 cells of 4 to 5 fold.
For “4E-BP1 (human, protein of 118 amino acids)”, in experiment [1], the CAT (%), cap-dependent expression from pGEMCAT/EMC/LUC in HTK-143 cells co-transfected with pRc/CMV/4E-BP1 (% of reporter plasmid alone) turned out to be 28; the CAT (%), cap-dependent expression from pGEMCAT/polio/LUC in HTK-143 cells co-transfected with pRc/CMV/4E-BP1 (% of reporter plasmid alone) came out at 22; the inhibition of CAT expression in transfected HTK-143 cells was in the range of 4 to 5 fold.
As to 32P-labelled HMK-eIF-4E probe, the Relative amount of HMK-eIF-4E bound (relative amount (Phosphorimager)) is 152 in [2]; 210 in experiment [3]; 214 in experiment [4]; 41 in [8]; 70 in experiment [9]; 60 in experiment [10]. Further, the Fold reduction in experiment [5] worked out at 3.7 fold; in experiment [6], 3 fold; in [7], 3.6 fold.

B1: GST-4E-BP2 fusion protein (other, not shown: a dimerising Fc or GST; large carriers; small tags and cut ends)
chain: MSSSAGSGHQPSQSRAIPTRTVAISDAAQLPHDYCTTPGGTLFSTTPGGTRIIYDRKFLLDRRNSPMAQTPPCHLPNIPGVTSPGTLIEDSKVEVNNLNNLNNHDRKHAVGDDAQFEMDI
Take B1: the “inhibition of translation of CAT (cap-dependent)” value in [11] is roughly 5 fold.
